A protein production outcome set (Wang et al. 2014)

test: label from the status in PepcDB records

Protein production, not failed:
MQLKSRVFIVTGASSGLGAAVTRAGSGGRDSARAGPEAASGGRACRSSARRCASEMPTRMRPTPPPLAFAKQEFGHVHGLVNCAGTAPGEDSRQERPARTGQFRPHGRRQPDRHSTYGLPPRSCRRESRTPTASGVIVNTASIAAFDGQIGQAAYAAEGRRRRPDASGRARARAFRNSRRPLRPASSIRRWPACLRMFRMRAASVPFPPRLGRAEEYAALVKHIREYDAQWRGHPPRRGFAHGAPV
MQLLKELCSIHAPSGNEEPLKDFILEYIRSNAGSWSYQPVIYADNDLQDCIVLVFGNPRTAVFAHMDSIGFTVSYNNHLHPIGSPSAKEGYRLVGKDSNGDIEGVLKIVDEEWMLETDRLIDRGTEVTFKPDFREEGDFILTPYLDDRLGVWTALELAKTLEHGIIAFTCWEEHGGGSVAYLARWIYETFHVKQSLICDITWVTEGVEAGKGVAISMRDRMIPRKKYVNRIIELARQTDIPFQLEVEGAGASDGRELQLSPYPWDWCFIGAPEKDAHTPNECVHKKDIESMVGLYKYLMEKL
MQNLDRDVVIVGAGPSGLTAARELKKAGLSVAVLEARDRVGGRTWTDTIDGAMLEIGGQWVSPDQTVLMELLDELGLKMYSRYRDGESVYIGADGKRTQYTGDTFPVNETTKAEMDKLVAILDELAAEIGPTEPWAHPKARELDTISFHHWLRQNSNDEEACNNIGLFIAGGMLTKPAHAFSALQAVLMAASAGSFSHLTDEDFILDKRVIGGMQQVSLLQAAELGDDVVLNSPVRTIKWDENGVSVVSERATVNARFVIMAVPPNLYSRVSFDPPLPRRQHQMHQHQSLGLVIKVHAVYDTPFWREEGLSGTGFSAGALVQEVYDNTNHGDSRGTLVGFVSDEKADAVFELSAEDRKKAILESIAGFLGDKALTPEVYYESDWGSEEWTRGAYASSYDLGGLHRYGKDQHANVGPIYWSSSDLAAEGYQHVDGAVRMGQATAARIVEANKLASVPVA
MQRERTAESSLRVISKEKNSITVEMINYDNTLLRTLVEEILKDDQVDEARYYIKHPVIDNPQIYVRVKSGKPQSAIKRAVRKLSKLYEDLGTQFQKEFQRYESDHMIKAVE

Protein production, failed:
MQKALFNLVLRGLEKQVPATGLGLFRLAFGLVAFQEICFLYYFRQLIFDPVPYLDIASPSVHLFLVLWAIAALCLALGLYTRLAAIANYLFWLVFTVFTPMWKDFDGGFDQLMLGSSLLLIFLPSERAWSLDRLRLAWRHSTVDRCYALPRTVPVLCYFLPLAVSLGFIYFDSVIHKLFAEFWRNGLGPWLPSSLPYYMSPLDMGWLLEIEPLQRAIGYTIIAFQFAFLFLLYFRRFRVPLMLVGLSLHAGIIVSLNIYPFGFGMLVHYFLMVPFRWWRTLGRTLRPAEPALQVFYDERCPLCLKTVLAIEHFDVFRAVEFRGLQTHAATAPALEDIPERDLLGDLYAVDREGRRYSGVATYARILVAMRYPALAGLAMRLPGLATIADRVYRRIADNRVRLGCDASCAPAPGRTEPDLAQRIGRWVGGSLQQRANRISRMLVVVLILQLNCTLHYAILYRLGVDTKANEAGQVLTMLSNALISASHTFLGITPHPLYLHDHFQGYEHILGIVHLDADGKERWLPFVDEEGRIVSPNWGRVHSMWANVAVTRHMDPRRLDKFVRKVTAFWGTRLGLDLNRTTFVLKLKTVKAPMDWEPGLRRYNLAQPWEDVGRAVWRDGEMRLELDRDLEALSAD
MQKGVYIMNSTSSIITIGREYGSGGRQIGQEVAKYFGIKCYDKELLEHAANDSGICKELFEHHDEKPTNSFLYSLVMDTYSFGYSSSGFSDMPMNHKIFLAQFDAIKKLAGEGPCVMVGRCADYALADWNDCFSIFVHADLDWRINRIASKHGKTPKEAKDMITKTDKSRASYYNYYTNKKWGAARSYNLCIDSGKLGIDYATEAIIESIKIFDRTKISK
MQKTSFALLVAALQLASASALAATPPVADAIWFNGPIITIDDQHPKAQAVAVKDGKILAVGDRQHVLKNKGPATQMLDLKGATLLPGFVDPHGHVSMVGFQAASANLLPPPDGTNNSIPGLQETLRRFEQQSPIPKQFGVLFGFGYDDSQLQEQRHPTKADLDAVTRDLPIAIVHQSSHLGVLNSKALELAGIDASTPNPEGGVIRRVDGSQEPNGVLEENAFFNALIRIFPKLTADQAVDMLSAGQKLYVSYGYTTIQDGRSSPDQVKTAIKAAGDGKLLADIVSYPDILTPGVKQLMVAPWYHPSNQPVVYNQHFRIGGVKLTLDGSPQGKTAWLSQPYFKPPQGQDASYAGYGVVKDADALAIYKEALANRWQILSHTNGDRAIDQLLGSMRAAEQAYPGVDVRPVMIHGQTLRKDQVAELKQLKIFPSLFPMHTYYWGDWHRQSVLGPERAENISPTQWVLQAGMKFTTHHDAPVALPDSMRVLAATVNRTTRSGYVLGPDQRVTPLQALKAMTLWSAYQHFEEDRKGSITPGKLADFAVLSANPLTVKPETLSEIQVLKTVKEGRVIYERPAKVASLPPPFGMHGDPSLPVPQGIRAVAQGDGDLGPALDVIYDRLAPVQP
MQLEPRINTFSMEAMFTFSSTFLYDSIVDSSRPILATSLLGCDVTDPERRATTACCICEETLSELHMTRPTQKVKAVSGPTRERHIIFSTCKPVL
MQLLPGPVRRFAAWCAVILLASGVVYVAIRLCVEFRTAVTPALLALLGTALLRPLHARLVKAHVQRSLAAGLTCAAVLAVVGGAVYIVVSALVETGDQIVTSLRDAAQGIADHFGAAGTSLDDLASNARELLGKFGGTAASGVVTGISVVGEMIAMAVLALLLVFFFLRDSDRAVTTVRALAPPGGADTVEAVARRAFGAVEGFMRGTTLIALIDAFCITVGLLVLRVPGAVGLGALVFVGAYIPYLGAFISGAVAVLVALADRGFVIALWALGVVLAVQVLEGHVLQPMIQSRTVQMHPAVVLLALTAGASVAGILGMLLAVPLTAAAFGVVHELQARYGVSTAASGPDAGPAPSTGAADS
MQLMRFDKPIGTLLLLHPTLWALFAAAGGIPSSSILIIFILGVIVMRAAGCVINDYADRHIDGKVKRTSQRPLATGRVTTVEAKVLFFVLLIIAFLLDLSLNQYAFLLSFVAVALAVIYPFMKRFTHLPQVVLGMAFGWAIPMAYGAVIEDLPLTCWLLFLANILWTVAYDTQYAMVDRDDDLRIGVKSTAILFAQYDNKIIALLQFLSLILFILFGWLSEYHIGYFIVLALTSTLFIYQCWLTKQRVREQCFKAFLNNNYFGFGIFIAILVGIYGF
MQLWIYGVLIRLVTPAVFVWLWLRGGKDSRYRQNWSERLALGSVDKKQHGCLVIHSVSVGETLAAKRLIEQLLRQEPGQKILITCMTPTARELIQQHFADTVSCRYWPIDSPGAAKRFVRKFKPKAVWVMETELWPQMLNQFSKANIPVALLNARLSARSAAGYRRFHWLMKKVWKQLTLVSVQNKETARRMKVLGVPDSVLFVDGNLKYDIELSVTDIEKALLWRQSCASRHVWLASSSHPGEHELLLEAHKLIQQDLSNSCLIIAPRHPEQFEVVAKMIRESGLKLARRSESNAIPEDCDVFLADSMGEMMLWGQLASASFVGGSIIERGGHNPLEVIAAGSNVMSGRHVFNFPQVYGELAKAGAVQWVNNAGEIKQAVELMQQTAVMKAQHEAAKSVLQTHQGATLRVLKRALEYTLTGSGMIKTEQSPQGLIRYDSDIFETIEDKHFTAQYWQQQKSIAGNSTGRATVWFIQQGDLGLLLRHYYRGGLVGKINKDRFLREPAEKSRAIHEFDLLLKLREIGLPVPRPVAARMEKTAVFSYKADILVEVIPGAVDVFRLLREKKLSAELWQKLGSVIKELHDTGVYHSDLNCHNLMLDDKDKAWIVDFDKCDFRENGDWKEANIQRLLRSLRKEKEKNETFYWKESRDWPELLTGYRR
MQNDFDRVFVLTGGPGSGKTTLIAALRRAGFATSVVAGRGIVRDQSSIGGTALPWSDRTLFAELMLSWEMRSYQNAVEQKGPVFFDRGVPETLGYLRLSGLPVADHVSTAAKRFRYNPRVFIAPPWPDIFAQDEERKQTPDEAKCTYHALAEIYTELGYELVPLPLAPVETRLRFVLADAGLEHHHHHH
MQNTPVILFDLDGTLIDSTEAVYEGFCVAFEKNGGAIPSQGKVVELIGHTLEDMFLRLGVPEVNITQHVLDYKAHYRIISKPKTNLLPKAREAILEASKFATLGVVTTKTGRFSRELLEYFEVLHFFKSIVGREDVTNAKPHPEPIFKALSEIGIKEVSAWMVGDTPLDLLAAQEAGIKSVAVLSGYAEEEMLRKYTLNVSKD
MQPILWILTLGISLNGVTSVTFLKQFNTSFLDFEIVGVPIIFALTIPLFGSFSSRLEFSNSTIYVVHLLSNRKIIYYFMGTDVIFYAIITFVNVLTVAGLSFILTSEGVNVIGLLAVLPLMLLGSLTSYSLGIIINSLFRNLSSPTSYLFSLIQVILILFSGVYYPLSYLPEYLRIIAFISPYSHLIALIRYILLGYNASDLNALWFYTLPYQVQVVLSISYVIVLGVILFILAGKRLVKGQGMVLL
MQPVEASDYWELARLSQPAVSPTGDRVAYVRTTAERDGDTGQETASVHVAPVGGGGSRRFTAADGTDAEPAWSPTGDRLAFVSTRGDAGGGRPQLWVVPVDGGEATRITDVIGGVSNIAWGPDGDRVAFLQAVRPAERAEELDREHDGEYERDTPDPRVIDRQMYRGHTSYRDGARRHVYVADLAAGRVDRVTAGVAECGGPAWGDDGTLYYPIRRGLDADDRLEWAIEAATPADSADSTVVTTVEGMGPTLAVHGSRVAYTTTPADDPTLTQTAVEVFDRDTGATDRLTDGVDRTVAERTAGHAPEWGPDGEHLYVCTPDEGGYVLRRVAADTGDDRVVLAGDRHVHAFSVSADAVAVVQSEWDHPGEVVAATPMGGEEVTLTRANRDYLDERAVSKPESVWIDGPAGDIQGWVLTPPEFDPEETYPLVVNVHGGPHLMWSAAGTMWHEFQTLAARGYVVFWCNPRGSTGYGQEWLRAVERDWGAVTLADVMAGVAAVTDRDYVDADNAFITGGSFGGFMTGWAVGHTDAFAGAVAQRGVYDLTGFYGTTDAYALVEGEFDTDPVRDNAFLWAQSPAAHTDAVDTPTLLVHSEADYRTPANTAELFYRLLKKHGVDTRLVRYPGEGHDLSRSGDPGHVVDRIERIAAWFDGYSDHHEAAPVLETDRPGAAADE
MQRFVCEQNIAHFQKLLETAEDEKLRRTLLGLLSSAKRELALLHSRLSGADLSPLAYRNRGGDLNSVLAQIRAGFDASDHPYMLIDAGPGLKIIDINDAYARATFTAREAIVGKPLFEIFPDNPAIDTADGVSNVYNSLRAVVETGEPHALAVQRYDMRNTEGVFVERYWQSINTPVRDAGGKLICLLHNVEDVTAEVLAN
MQSAKEKISDMASTAKEKLNIGGAKAQGHAEKTMARTKKEKKLAQEREKSKEAQAKADLHQSKAEHAADAQVHGHHLPGHSTYPTRATGANYPPGQI
MQSFWSKLKIESSKLLPSYFASVMAIGIFSIAFFLYNYNVLSYLLSYLSNVIYFALWVITVIRWVYYPRSYLNELKDLGRSPGFLSKVIATNTIGSEYMLIFKDYSLAYAFFMFGLILWIFYQYAVLSAISFNINDRNIEYVNGIWELIPASTQSVVDLGSILSPFHTYLYTLSLILFFIGVAQYIVMTSLILGRIVLKGLKPKDASGSYWIITGAAALSALAGIDLLIYLNEVNLQSAYIGDLRTIVLTFIILLWSTGTWWIPWLIYMGIWKHVINRVPLLVYDPQFWGAVFPMGMYATSSFLLIRYVNLNIPMLIPDIFILVGSVALVYQTSLMLYNVVKKLVD
MQSSQVKSAMRALEIMEFFRAVKQPRSMSEISIALGYPQSSTTVLLKTLISLGYLNFNRKERLYFPTLKVSALGDWIANSLFSSRDILEVLQDIHMETGETVAIATKNDIYLQYIQIIESVHALRFHVDENAIRPLTMSSNGWMLMSTMNDKAIDNTVRRANTITQKDGIRFEVDDMMARIRQVREQGYASAEHIPFVGGGTICVLLPMTIQGQPVTMGLGGALDRIKQNYDRYLELLLNGVQQLKKSDSFHQPIELAH
MQSVEDKTFCLQTLSANPLAASATGLLPLAEVVIRGIDLPYAKLLVKSADRAIEKIPALKEQFKECQDSFLRIVMSLKSAASELKVSPDTANYDAMICFDETKRVKEVIGKNEDVTSKSLIEMTLRMEKLIFLALGATEVVGG
